The record followed here is article doi:10.1101/2024.08.27.609886.

The experiment has as its target FibrilPaint1. Kind of experiment: MST.

Turning to “E3 ligase CHIP (from UniProt Q9UNE7 23-303) (enzyme)”, the Kd amounted to 1.5 µM.
